Source: doi:10.1101/2024.08.01.606258

Target: avGFP [GFP: P42212]
Assay: SEC

stoichiometry N: 2
Substance: avGFP (from UniProt P42212 1-237) (natural protein)
